According to patent publication US20180194839A1 (Novartis, published 2018):
Positions count from the first letter of the chain named. Names may count otherwise.

Experiments:
[1] = target: T1, recombinant human IL-17A (SEQ ID NO: 76) (human, UniProt Q16552 24-155, limits assumed); assay: ELISA, coated antigen, Ab 1 µg/ml
T1 construct: homodimer; also called huIL-17A; rhuIL-17A
T1 sequence: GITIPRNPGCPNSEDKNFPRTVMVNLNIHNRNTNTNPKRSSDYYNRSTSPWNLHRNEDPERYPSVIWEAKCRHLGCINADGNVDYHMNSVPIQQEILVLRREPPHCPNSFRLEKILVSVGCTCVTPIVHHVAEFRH

[2] = target: T2, recombinant mouse IL-17A (SEQ ID NO: 83) (mouse, UniProt Q62386 26-158); assay: ELISA, coated antigen, Ab 1 µg/ml
T2 construct: also called mIL-17A; rmIL-17A
T2 sequence: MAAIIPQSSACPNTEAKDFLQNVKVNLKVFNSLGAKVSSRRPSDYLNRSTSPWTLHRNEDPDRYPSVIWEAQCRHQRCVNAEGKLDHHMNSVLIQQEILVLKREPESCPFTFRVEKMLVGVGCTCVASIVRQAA

[3] = target: T2, recombinant mouse IL-17A (SEQ ID NO: 83); assay: ELISA, coated cytokine, Ab 10 µg/ml
[4] = target: T3, recombinant mouse IL-17A/F (R&D Systems Cat#5390-IL) (mouse, UniProt Q62386 26-158; Q7TNI7 29-161, limits assumed); assay: ELISA, coated cytokine, Ab 10 µg/ml
T3 construct: bought heterodimer; also called mIL-17A/F; rmIL-17A/F
T3 sequence (looked up) 1: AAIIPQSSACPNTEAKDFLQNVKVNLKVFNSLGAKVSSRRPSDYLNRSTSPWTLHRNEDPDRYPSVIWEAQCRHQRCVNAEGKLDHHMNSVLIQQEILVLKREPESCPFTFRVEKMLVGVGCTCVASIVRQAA
T3 sequence (looked up) 2: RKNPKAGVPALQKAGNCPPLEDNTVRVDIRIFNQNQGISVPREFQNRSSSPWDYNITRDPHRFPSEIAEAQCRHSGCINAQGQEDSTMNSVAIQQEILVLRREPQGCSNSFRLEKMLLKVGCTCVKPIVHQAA

[5] = target: T4, recombinant mouse IL-17F (R&D Systems Cat#2057-IL/CF) (mouse, UniProt Q7TNI7 29-161); assay: ELISA, coated cytokine, Ab 10 µg/ml
T4 construct: also called mIL-17F
T4 sequence (looked up): T3 sequence (looked up) 2

[6] = target: T5, recombinant mouse IL-1β (R&D Systems Cat#401-ML) (mouse, UniProt P10749 118-269); assay: ELISA, coated cytokine, Ab 10 µg/ml
T5 construct: also called mIL-1β
T5 sequence (looked up): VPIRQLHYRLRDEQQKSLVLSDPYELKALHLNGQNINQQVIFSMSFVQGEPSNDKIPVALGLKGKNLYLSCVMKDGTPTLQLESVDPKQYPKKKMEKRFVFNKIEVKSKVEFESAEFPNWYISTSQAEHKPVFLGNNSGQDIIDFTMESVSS

[7] = target: T6, recombinant mouse IL-6 (R&D Systems Cat#406-ML-010/CF) (mouse, UniProt P08505 25-211); assay: ELISA, coated cytokine, Ab 10 µg/ml
T6 construct: coated at 0.5 µg/ml; also called mIL-6
T6 sequence (looked up): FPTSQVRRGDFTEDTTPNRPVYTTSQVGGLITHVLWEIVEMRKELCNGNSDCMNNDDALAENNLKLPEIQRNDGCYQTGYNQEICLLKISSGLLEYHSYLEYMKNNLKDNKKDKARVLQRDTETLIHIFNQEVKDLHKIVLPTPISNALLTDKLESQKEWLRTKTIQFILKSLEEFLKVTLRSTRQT

[8] = target: T7, recombinant mouse IL-12 (R&D Systems Cat#419-ML-010/CF) (mouse, UniProt P43431 23-215; P43432 23-335); assay: ELISA, coated cytokine, Ab 10 µg/ml
T7 construct: coated at 0.5 µg/ml; also called mIL-12
T7 sequence (looked up) 1: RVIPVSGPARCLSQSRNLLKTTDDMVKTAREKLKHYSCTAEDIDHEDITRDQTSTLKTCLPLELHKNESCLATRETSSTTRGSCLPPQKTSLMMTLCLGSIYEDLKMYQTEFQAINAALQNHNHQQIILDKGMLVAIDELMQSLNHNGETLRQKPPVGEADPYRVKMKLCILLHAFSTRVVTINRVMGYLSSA
T7 sequence (looked up) 2: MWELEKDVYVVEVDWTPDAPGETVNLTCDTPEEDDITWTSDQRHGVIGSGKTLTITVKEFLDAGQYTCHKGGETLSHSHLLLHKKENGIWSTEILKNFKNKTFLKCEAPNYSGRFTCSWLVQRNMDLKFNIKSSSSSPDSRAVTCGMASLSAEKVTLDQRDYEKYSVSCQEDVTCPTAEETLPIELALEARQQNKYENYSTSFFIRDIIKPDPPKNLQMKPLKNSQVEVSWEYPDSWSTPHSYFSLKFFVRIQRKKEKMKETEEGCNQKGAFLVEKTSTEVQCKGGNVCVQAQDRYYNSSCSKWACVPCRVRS

[9] = target: T8, recombinant mouse IL-23 (R&D Systems Cat#1887-ML) (mouse, UniProt Q9EQ14 22-196; P43432 23-335); assay: ELISA, coated cytokine, Ab 10 µg/ml
T8 construct: also called mIL-23
T8 sequence (looked up) 1: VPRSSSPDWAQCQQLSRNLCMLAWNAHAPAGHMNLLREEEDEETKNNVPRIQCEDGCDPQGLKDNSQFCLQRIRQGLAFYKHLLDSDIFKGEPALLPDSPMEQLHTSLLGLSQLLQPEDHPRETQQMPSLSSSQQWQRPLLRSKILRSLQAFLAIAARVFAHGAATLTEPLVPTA
T8 sequence (looked up) 2: T7 sequence (looked up) 2

[10] = target: T9, recombinant mouse IFN-γ (R&D Systems Cat#485-MT) (mouse, UniProt P01580 23-155); assay: ELISA, coated cytokine, Ab 10 µg/ml
T9 construct: also called mIFN-γ
T9 sequence (looked up): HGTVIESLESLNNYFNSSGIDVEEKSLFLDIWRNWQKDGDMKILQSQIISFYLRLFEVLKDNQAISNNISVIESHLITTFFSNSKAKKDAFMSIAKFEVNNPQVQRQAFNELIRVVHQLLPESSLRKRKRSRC

[11] = target: T10, recombinant mouse TNFα (R&D Systems Cat#410-MT) (mouse, UniProt P06804 80-235); assay: ELISA, coated cytokine, Ab 10 µg/ml
T10 construct: coated at 0.5 µg/ml; also called mTNFα
T10 sequence (looked up): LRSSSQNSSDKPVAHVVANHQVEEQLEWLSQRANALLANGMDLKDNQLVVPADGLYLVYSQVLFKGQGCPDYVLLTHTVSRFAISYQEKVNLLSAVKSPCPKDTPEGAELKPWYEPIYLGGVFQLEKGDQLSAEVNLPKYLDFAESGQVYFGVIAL

B1: XAB4 (antibody, human IgG1, kappa, V domains shown)
VH: EVQLVESGGDLVQPGGSLRLSCAASGFTFSSYWMSWVRQAPGKGLEWVANIKQDGSEKYYVDSVKGRFTISRDNAKNSLYLQMNSLRAEDTAVYYCARDRGSLYYWGQGTLVTVSS
VL: AIQLTQSPSSLSASVGDRVTITCRPSQGINWELAWYQQKPGKAPKLLIYDASSLEQGVPSRFSGSGSGTDFTLTISSLQPEDFATYYCQQFNSYPLTFGGGTKVEIKR
notes: also called MB435 N56Q
[1]
  O.D.: 2.47 O.D.
[2]
  O.D.: 1.58 O.D.
[3]
  O.D.: 3.29 O.D.
[4]
  O.D.: 3.34 O.D.
[5]
  O.D.: 0.034 O.D.
[6]
  O.D.: 0.022 O.D.
[7]
  O.D.: 0.031 O.D.
[8]
  O.D.: 0.035 O.D.
[9]
  O.D.: 0.058 O.D.
[10]
  O.D.: 0.038 O.D.
[11]
  O.D.: 0.065 O.D.

B2: XAB1 (antibody, human IgG1, kappa, V domains shown)
VH: B1 VH
VL: B1 VL with N30I, W31S, E32A, Q56N
notes: human IgG1/kappa monoclonal antibody; also called parental XAB1; XAB1 IgG
[1]
  O.D.: 1.3 O.D.
[2]
  O.D.: 1.44 O.D.
[3]
  O.D.: 2.97 O.D.
[4]
  O.D.: 3.17 O.D.
[5]
  O.D.: -0.058 O.D.
[6]
  O.D.: 0.007 O.D.
[7]
  O.D.: 0.038 O.D.
[8]
  O.D.: -0.005 O.D.
[9]
  O.D.: 0.009 O.D.
[10]
  O.D.: 0.048 O.D.
[11]
  O.D.: 0.025 O.D.
